Laboratory results taken from the supplement of paper PMC7125110.
± gives the standard error. This sample holds only a part of the variants without activity.

B1: glmS ribozyme (parent)
chain: AUAAAAGCGCCAGAACUACAGAAAUGUAGUUGACGAGGAGGAGGUUUAUCGAAUUUUCGGCGGAUGCCUCCAAA

Legend:
Conditions in all cases: with glucosamine-6-phosphate
glucosamine-6-phosphate [1] = variants of: B1; assay: self-cleavage kobs at 640 uM GlcN6P; higher = faster cleavage; RNA array
In short: (§1)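 A hybridised Cy3 probe tracked barcoded ribozyme variants, transcribed in situ by E. coli RNA polymerase on sequenced MiSeq chips, at 37 °C. The variants received 40 μM to 10 mM glucosamine-6-phosphate in HEPES/KCl/Mg(OAc)2 buffer. kobs came from decay fits and kcat and KM from weighted Michaelis–Menten fits.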

glucosamine-6-phosphate [2] = variants of: B1; assay: self-cleavage kobs at 160 uM GlcN6P; higher = faster cleavage; RNA array
In short: as §1

glucosamine-6-phosphate [3] = variants of: B1; assay: self-cleavage kobs at 10000 uM GlcN6P; higher = faster cleavage; RNA array
In short: as §1

glucosamine-6-phosphate [4] = variants of: B1; assay: self-cleavage kobs at 2500 uM GlcN6P; higher = faster cleavage; RNA array
In short: as §1

Variant	self-cleavage kobs at 640 uM GlcN6P (glucosamine-6-phosphate [1])	self-cleavage kobs at 160 uM GlcN6P (glucosamine-6-phosphate [2])	self-cleavage kobs at 10000 uM GlcN6P (glucosamine-6-phosphate [3])	self-cleavage kobs at 2500 uM GlcN6P (glucosamine-6-phosphate [4])
A6C G40C G60U	< 1e-05 s⁻¹			
G7C A12G A36C	< 1e-05 s⁻¹			
A52U G60C	< 1e-05 s⁻¹	< 1e-05 s⁻¹	< 1e-05 s⁻¹	
A6G C67G C68A	7.11e-05 ± 3.1e-05 s⁻¹			
C50A C70G	7.68e-05 ± 1.2e-05 s⁻¹	0.001 ± 0.00045 s⁻¹		6.7e-05 ± 8.5e-06 s⁻¹
C50G A52U U56G A64U	< 1e-05 s⁻¹	< 1e-05 s⁻¹		< 1e-05 s⁻¹
G7A G44C C50U	< 1e-05 s⁻¹			< 1e-05 s⁻¹
U46G U56G C70U	0.000436 ± 9.2e-05 s⁻¹	0.000211 ± 5.3e-05 s⁻¹		0.00119 ± 0.00031 s⁻¹
A52C G59A	< 1e-05 s⁻¹	< 1e-05 s⁻¹	< 1e-05 s⁻¹	< 1e-05 s⁻¹
A52C G59U	< 1e-05 s⁻¹	< 1e-05 s⁻¹	< 1e-05 s⁻¹	< 1e-05 s⁻¹
A6U A33G U69G	9.46e-05 ± 3.6e-05 s⁻¹			0.000191 ± 6.5e-05 s⁻¹
A6G G29C G35U A42C C58G C68G	< 1e-05 s⁻¹			
A6C C34A G41C C68A	< 1e-05 s⁻¹			< 1e-05 s⁻¹
U49C C58A G60U	< 1e-05 s⁻¹	< 1e-05 s⁻¹		< 1e-05 s⁻¹
A6C C16U G38U U47C G63A	< 1e-05 s⁻¹			< 1e-05 s⁻¹
A64G G66U C70U	0.000373 ± 9.3e-05 s⁻¹	0.000115 ± 2.1e-05 s⁻¹		0.000872 ± 0.00017 s⁻¹
A6C C16U G40C U47C G60U	< 1e-05 s⁻¹			< 1e-05 s⁻¹
G7A G37U U46G U55C C58A	< 1e-05 s⁻¹			
A6C A39G U57G	< 1e-05 s⁻¹			< 1e-05 s⁻¹
G66C C68G		0.000523 ± 0.00015 s⁻¹		
A6G G38U	< 1e-05 s⁻¹		< 1e-05 s⁻¹	< 1e-05 s⁻¹
G7A C10U C67G	8.24e-05 ± 3.5e-05 s⁻¹			

Variant	self-cleavage kobs at 640 uM GlcN6P (glucosamine-6-phosphate [1])	self-cleavage kobs at 160 uM GlcN6P (glucosamine-6-phosphate [2])	self-cleavage kobs at 10000 uM GlcN6P (glucosamine-6-phosphate [3])	self-cleavage kobs at 2500 uM GlcN6P (glucosamine-6-phosphate [4])
G7C C61A G63C	< 1e-05 s⁻¹			
G7A A15U A53G	< 1e-05 s⁻¹			
A6U C10A A14U C70U	0.000391 ± 8.2e-05 s⁻¹			5.43e-05 ± 2.3e-05 s⁻¹
G7A G44A U46C A48U	< 1e-05 s⁻¹			< 1e-05 s⁻¹
C61U C67U	< 1e-05 s⁻¹	< 1e-05 s⁻¹		
A6G U31G G35A U65C	< 1e-05 s⁻¹			< 1e-05 s⁻¹
A6C C34G C61U	< 1e-05 s⁻¹			< 1e-05 s⁻¹
A6U G9C A12C U55A	< 1e-05 s⁻¹			< 1e-05 s⁻¹
A6G A15C G32U	< 1e-05 s⁻¹			
G7U C8G G38C	< 1e-05 s⁻¹			
U65G C67A C71G	4.48e-05 ± 1.8e-05 s⁻¹	0.000166 ± 5.7e-05 s⁻¹	4.47e-05 ± 1.5e-05 s⁻¹	7.1e-05 ± 1.3e-05 s⁻¹
A6C A42U C50U U57A G62C	< 1e-05 s⁻¹			
G7U A15U U47G	< 1e-05 s⁻¹			
G59U G60A	< 1e-05 s⁻¹	< 1e-05 s⁻¹		
G7C G43U A53C G66U	< 1e-05 s⁻¹			
A6U C50A G60A C70A	0.000136 ± 5e-05 s⁻¹			
U46C U54A C61U		< 1e-05 s⁻¹		< 1e-05 s⁻¹
G7C G59C G66C	< 1e-05 s⁻¹		< 1e-05 s⁻¹	
U47C G51U C68U		< 1e-05 s⁻¹		< 1e-05 s⁻¹
G7U A14U A52C C68A	0.00249 ± 0.001 s⁻¹			
G44U U49A U54A G62U	< 1e-05 s⁻¹	< 1e-05 s⁻¹		< 1e-05 s⁻¹
U45A U57C	3.94e-05 ± 8.9e-06 s⁻¹	3.83e-05 ± 1.6e-05 s⁻¹	0.000355 ± 4.8e-05 s⁻¹	0.000268 ± 4.2e-05 s⁻¹

Variant	self-cleavage kobs at 640 uM GlcN6P (glucosamine-6-phosphate [1])	self-cleavage kobs at 160 uM GlcN6P (glucosamine-6-phosphate [2])	self-cleavage kobs at 10000 uM GlcN6P (glucosamine-6-phosphate [3])	self-cleavage kobs at 2500 uM GlcN6P (glucosamine-6-phosphate [4])
A6U A36C A39U C71G	< 1e-05 s⁻¹			< 1e-05 s⁻¹
U47G C50U U56C A64U	< 1e-05 s⁻¹	< 1e-05 s⁻¹	< 1e-05 s⁻¹	< 1e-05 s⁻¹
G7C A15C A39U A42C U57A	< 1e-05 s⁻¹			< 1e-05 s⁻¹
A6U G43U C70G	< 1e-05 s⁻¹			
A6U G29C U56A	< 1e-05 s⁻¹			
G63A C67U		< 1e-05 s⁻¹		
G51U U69G C71A	7.38e-05 ± 2.2e-05 s⁻¹	0.00015 ± 5.2e-05 s⁻¹		7.85e-05 ± 3.7e-05 s⁻¹
G51C U54G	< 1e-05 s⁻¹	< 1e-05 s⁻¹		
U45C C50G G51A A53U G60C	< 1e-05 s⁻¹	< 1e-05 s⁻¹		< 1e-05 s⁻¹
A53C G60U A64U U65G	< 1e-05 s⁻¹	< 1e-05 s⁻¹		
C50G U55A		9.39e-05 ± 2.2e-05 s⁻¹		0.000374 ± 0.00012 s⁻¹
A6U C8A A64U	< 1e-05 s⁻¹			< 1e-05 s⁻¹
G66U U69C	0.000207 ± 6.9e-05 s⁻¹	0.000111 ± 2e-05 s⁻¹		0.000653 ± 0.00016 s⁻¹
G44A G66C		< 1e-05 s⁻¹		
G7C A15U U45A	< 1e-05 s⁻¹			< 1e-05 s⁻¹
G44U U49C	< 1e-05 s⁻¹	< 1e-05 s⁻¹	< 1e-05 s⁻¹	
G44U C61A	< 1e-05 s⁻¹	< 1e-05 s⁻¹	< 1e-05 s⁻¹	< 1e-05 s⁻¹
A6U A12U G13U U47A C70U	< 1e-05 s⁻¹			
A6U G41A C58A	< 1e-05 s⁻¹			
G7C A14C G44A G63A	< 1e-05 s⁻¹			< 1e-05 s⁻¹
G7C C71A	< 1e-05 s⁻¹		< 1e-05 s⁻¹	
G43U G59U	< 1e-05 s⁻¹	< 1e-05 s⁻¹		< 1e-05 s⁻¹

Variant	self-cleavage kobs at 640 uM GlcN6P (glucosamine-6-phosphate [1])	self-cleavage kobs at 160 uM GlcN6P (glucosamine-6-phosphate [2])	self-cleavage kobs at 10000 uM GlcN6P (glucosamine-6-phosphate [3])	self-cleavage kobs at 2500 uM GlcN6P (glucosamine-6-phosphate [4])
A6G G41A G43C C50G C61U	< 1e-05 s⁻¹			< 1e-05 s⁻¹
A6C C8G A48G G60U C68U	< 1e-05 s⁻¹			< 1e-05 s⁻¹
G7C G40U	< 1e-05 s⁻¹		< 1e-05 s⁻¹	< 1e-05 s⁻¹
C50G G60U		4.83e-05 ± 1.6e-05 s⁻¹		4.39e-05 ± 1.9e-05 s⁻¹
U47A G63C	< 1e-05 s⁻¹	< 1e-05 s⁻¹		< 1e-05 s⁻¹
G44U U47C		< 1e-05 s⁻¹		
A6U A14C G51C	< 1e-05 s⁻¹			< 1e-05 s⁻¹
A6U C50G U55A C71U	0.00151 ± 0.00047 s⁻¹			
A6G A15G A42G	0.000137 ± 4.7e-05 s⁻¹			
A64U C70A		< 1e-05 s⁻¹	< 1e-05 s⁻¹	
A6G G59A C67A	< 1e-05 s⁻¹			< 1e-05 s⁻¹
A53C C58G G60A C67U		0.000139 ± 3.1e-05 s⁻¹		8.04e-05 ± 2.5e-05 s⁻¹
G51U C61U	< 1e-05 s⁻¹	< 1e-05 s⁻¹	< 1e-05 s⁻¹	< 1e-05 s⁻¹
A6G G29U G62C	< 1e-05 s⁻¹			
G7A U56C C68U	< 1e-05 s⁻¹		< 1e-05 s⁻¹	
U2C G32C G60U G63C	< 1e-05 s⁻¹			
G7A A15U A33G A36U G38U U57C	< 1e-05 s⁻¹			< 1e-05 s⁻¹
U45A A52U U65G	< 1e-05 s⁻¹	< 1e-05 s⁻¹		
G7U A14G G40U	< 1e-05 s⁻¹			< 1e-05 s⁻¹
U45G G51U	< 1e-05 s⁻¹	< 1e-05 s⁻¹	< 1e-05 s⁻¹	
C50U A52G C70A	0.000125 ± 3.7e-05 s⁻¹	5.11e-05 ± 2.3e-05 s⁻¹		6.9e-05 ± 2.3e-05 s⁻¹
A53C G63A	< 1e-05 s⁻¹	< 1e-05 s⁻¹	< 1e-05 s⁻¹	

Variant	self-cleavage kobs at 640 uM GlcN6P (glucosamine-6-phosphate [1])	self-cleavage kobs at 160 uM GlcN6P (glucosamine-6-phosphate [2])	self-cleavage kobs at 10000 uM GlcN6P (glucosamine-6-phosphate [3])	self-cleavage kobs at 2500 uM GlcN6P (glucosamine-6-phosphate [4])
A6U U49C U54A A64U C68U	< 1e-05 s⁻¹			
G7C U45G A53U A64G	< 1e-05 s⁻¹			
C58G C67G	0.000101 ± 1.3e-05 s⁻¹	5.68e-05 ± 1.1e-05 s⁻¹	1.83e-05 ± 8.7e-06 s⁻¹	5.23e-05 ± 1e-05 s⁻¹
A6G A39C G63U A64U C67G	< 1e-05 s⁻¹		< 1e-05 s⁻¹	
G63U A64C	< 1e-05 s⁻¹	< 1e-05 s⁻¹	< 1e-05 s⁻¹	< 1e-05 s⁻¹
G7C A15C G51U C61A G66U	< 1e-05 s⁻¹			
U45C A64U	< 1e-05 s⁻¹	< 1e-05 s⁻¹		
A6U G40U U65C C68U	< 1e-05 s⁻¹			< 1e-05 s⁻¹
U45A A53U U65A	0.0024 ± 0.00081 s⁻¹	0.000624 ± 0.00014 s⁻¹		0.00652 ± 0.0016 s⁻¹
U47A G66A	0.00249 ± 0.00067 s⁻¹	0.00046 ± 0.00012 s⁻¹		0.00842 ± 0.0039 s⁻¹
G7A A39U A48C	< 1e-05 s⁻¹			< 1e-05 s⁻¹
G43C U56A	< 1e-05 s⁻¹	< 1e-05 s⁻¹	< 1e-05 s⁻¹	< 1e-05 s⁻¹
A6U G29U G32U A42G U47A C71G	< 1e-05 s⁻¹			< 1e-05 s⁻¹
G7U A14G G60C C70A	< 1e-05 s⁻¹			
G7U G9A C58A C61A C67U	< 1e-05 s⁻¹			< 1e-05 s⁻¹
G7C C8A A42U	< 1e-05 s⁻¹			
G43C U45A C67U	0.000977 ± 0.00034 s⁻¹	0.000282 ± 9.2e-05 s⁻¹		0.00269 ± 0.00071 s⁻¹
G7U A33U G37U G63A	< 1e-05 s⁻¹			< 1e-05 s⁻¹
A6U C50A U65A U69C	8.83e-05 ± 3.7e-05 s⁻¹			
A6C G35C U54A	< 1e-05 s⁻¹		< 1e-05 s⁻¹	< 1e-05 s⁻¹
A52G C61U C68G	0.000189 ± 6.4e-05 s⁻¹	0.000141 ± 4.2e-05 s⁻¹		
G44U G62A	< 1e-05 s⁻¹	< 1e-05 s⁻¹		< 1e-05 s⁻¹
